According to the DeepSol protein solubility set:

Assay: soluble on expression in E. coli; label from the status in PepcDB or PDB records

Sequence	soluble on expression in E. coli
SLNILFDIGHPKDVNVFKNVIWKLQERGHEIKIVARAKENTKRVLEEYGFEYEVCKYYKTMSGKALGIITNDIHLYNIAKKFQPDIFVSPGSPYSAHVSRLLRKPHIAFSDTEIAGLVMKLTFPFTDKIYTSSSFYLDLGPKQIRFNGYYELAYLHSNYFTPNRDVLKKYNLDEGYIILRLSALSSHHDIGAKGFTFSSEEELIDFIRELERYGRVIVSSETKQWKTISDYELKFKPGDLHDLLYYSKMCIGEGATMASEAAILGVPAIYVSNTHRGYLDELETYELAFTIQEREEALKKAKSLLEEDSLVKNSKEKREKLLKEKTDVVEFMVNAIEGSYKL	soluble
MTAQTTHTVDAVVIGAGFGGIYAVHKLHHELGLTTVGFDKADGPGGTWYWNRYPGALSDTESHLYRFSFDRDLLQESTWKTTYITQPEILEYLEDVVDRFDLRRHFKFGTEVTSALYLDDENLWEVTTDHGEVYRAKYVVNAVGLLSAINFPNLPGLDTFEGETIHTAAWPEGKSLAGRRVGVIGTGSTGQQVITSLAPEVEHLTVFVRTPQYSVPVGNRPVNPEQIAEIKADYDRIWERAKNSAVAFGFEESTLPAMSVSEEERNRIFQEAWDHGGGFRFMFGTFGDIATDEAANEAAASFIRAKVAEIIEDPETARKLMPKGLFAKRPLCDSGYYEVYNRPNVEAVAIKENPIREVTAKGVVTEDGVLHELDVLVFATGFDAVDGNYRRIEIRGRDGLHINDHWDGQPTSYLGVSTANFPNWFMVLGPNGPFTNLPPSIETQVEWISDTIGYAERNGVRAIEPTPEAEAEWTETCTEIANATLFTKGDSWIFGANIPGKKPSVLFYLGGLRNYRAVMAEVAADGYRGFEVKSAEMVTV	soluble
MKVAICDDNPTLTEKINTMLFNYNPNIFETYTYYNPLKLVNQLDQENFDFFILDIEMSEMSGIDLAKKIRERDILSPIVFLTSYKEYMEEVFQVQTFDYLLKPPTEDRLHQVLEKLRQQLEKKRNYFVFSSNKVTYKIPTKDIIYFEKDKRQVLIHTVGEIYKPYMSTNQINEQLDTNFVQVHSSFIINCAYIKELGKNFLLMDSKEKCIEIPISRRFKAAAHKSIVMSMRGKI	not soluble
MSFFKKLAASAGIGAAKVDTILEKDAYFPGEEVQGTVHVKGGKIAQDIRYIDLQLSTRYVIVKDDEEHRKYATIHSFRVTGSFTIQPGEEHQFPFTFTLPLDTPITVGKVEVAVVTDLDIQGGIDKSDHDRIFVEAHPWIENVLEAIENLGFRLNEADCEQAPYFQRRFPFVQEFEFVPTSGYYRQMLDELELIFLLGEDGLEIIFEVDRRARGLRGWLEEMYNDGEQLVRVRFSQSELEDAEELEEVLEEILDQYVE	soluble
KGMTPPKTVNFKMKGVADAAFSHEFHLGMYKCNECHTKLFAYKAGAKRFTMADMDKGKSCGACHNGKDAFSSASDCGKCHPG	soluble
MGSDKIHHHHHHMLDPIEFIHNASSISKKSMNRLKLKTNPFSEKPIRGNTKFFVGRTSELSEIADILGAAQYGSVANAAIVGTKGIGKSSILNILYYASKRHNHWVVELEASQITARQFLIQLMYGIIKDNLFSVDGTLSSDYMKHSQKIIEIYKRLSNYSDKTPVHYPREKIERDLKYLLNEVKEENKLCVILIDEADQFAKRSCLGLLQFFHSFLYEDDILTFLAGPPTMVEDLTKISPAIRDRIPKIINMPPLTKEEAYDLIKRRLEDSQITGAKGYQPFSEQSIEKIIEECDGIPRRIIMTCSEAVSLGLKNGVDEIDDEIARNAMKNLGISVGHQILNHLTPAQSKIIKAMAELGGSSTVTELSGILNNSTGTIGTHLSDIYEMGYIYKERDGYNVYYTLSKELKDVLITKEDIS	not soluble
MHSQVFSAFPHSLPLRSWVNVIKNPQFVFDIHKGSITDACLSVVAQTFMDSCSTSEHRLGKDSPSNKLLYAKDIPSYKSWVERYYADIAKLPAISDQDMNAYLAEQSRLHAVEFNMLSALNEIYSYVSKYSEELIGALEQDEQARRQRLAYKVEQLINAMSIESLEHHHHHH	not soluble
MGSDKIHHHHHHMNVLEQFYQLGWTLDSAGGASGEAYMAEQDGQKLFLKRNSNPFIAALSAEGIVPKLVWTKRIETGEVVTAQHWKNGRELNEDEMNQTRVAELLHKIHGSRPLLTMLKRMEMEPITPDIMLNKINASLSREVLTHHVVRRALTYLEDHIPNLDARFFTVVHGDVNHNNWLLSDRDELYLVDWEGAMIADPAIDIGMLLYNYVPQNKWSQWFKTYGVEESVNLNKRMKWYTVIQAIGLIQWYEEQKRYRDMNTWLKFLNEVMNSNLFI	not soluble
EKVIIEKAAGDAEAIAFDGRTYMEYHNAVTKSPDALDYPAEPSEKALQSNHFELSIKTEATQGLILWSGKGLERSDYIALAIVDGFVQMMYDLGSKPVVLRSTVPINTNHWTHIKAYRVQREGSLQVGNEAPITGSSPLGATQLDTDGALWLGGMERLSVAHKLPKAYSTGFIGCIRDVIVDRQELHLVEDALNNPTILHCSAK	soluble
MCMIVYFFFIHKPLAFYFIRLFHPHPFPVVLDHILLLISSLIGFKSQDSSFRHQNSDCQMNVFQVIIFLLSVLAVFSSADLSIDGESLVLSINEEGPIKVRRARETGEH	not soluble
MASDESMVPYYQWNFAPVVRGIARTQARVEVLRDGYTVSNELVPSGPFELANLPLGGGSGELKVIIHESDGTKQVFTVPYDTPAVALRKG	soluble
MGSDKIHHHHHHMARKRDDAALHLPLPEERQVTAFLQAHPDFLVRHPDLLLSLSPPSRWADDDGVLDMQVFMIDRLRDEVERVRGAAEHLIHTSRSNMSIQTRTHRAVLSILGAESMAELVEAISDDLPALLDVDVATLCFEKSEEALPDLLAPGILTLPGGTVAQIMGGADRDCALTEEMPGDPALFGDGAGLVQSSAVVRLSPGGKSPDGVMALGSRHGRTFHAGQATELITFLARVVEGSVRRFVG	not soluble
MELELDDDVFFADISKQLNLLITDEDEQNPISLSSSVSFQGLFRGNYQTSATPYMMYNEQINYNVIRESKGTGVFIPRSSQPRRKHNHHPHQKKQGRFIGSFIPKQQFPHHGHDNNLTTLNNNNQESITFHHASTNPRRTYRDAASLFT	not soluble
MAHHHHHHMFSRHSLWVPAASHFPKFVEHFNRFLKASPHNVELQKALCYKEEETQLLIIQDPKARQPIFAMAFPFTVTSALCDGSRMGLGTFTSLVDTTTSLHVAAALLPTNDMHVSVSLQTNCVQPITAGEKVVMISRMDKFGKRLAFLSARLLRLDDVYENTVAPTAGRELEELERQLSQYQTLANGTHVKCILTGKS	not soluble
MLQKYSIIVLCCSAVLARVPVAKNCPTGWTWFLRSRGGWCMKVFTEALNQPSAEAKCKAAEAVLAGIQNKEEVAWMSKELTGTMWIGTKRTPPCMNSGVTKQCSQITSYYWTDGSTVGVQGFYWNSGEPNNQGGQGCAKLITSSSVLDDVACTTELTNGYVCGKIATF	not soluble
MGSDKIHHHHHHMKKPQSNFPHLQLKDGILKDQLYHAFREAILDGRLHPRMKLPSSRALSETMQISRNSVLQGFERLIDEGYLLTKPGSGTYVSDTIPDELIDIPNSSRESAQAFDSNVDINPQLIEMARLKAKGNTDHSHSMLNIGVGCVDLFPHQLWGRLLGRVWRQSRKTLGKSNHSAGYLPLREAISDYARSTRGLNCTPEQIIIVNGTQQAINLTAQVLLQQGDEVWLDEPGYDGALGAFLSQNMRVRPVSVDVEGTNIADAIQRYPAVKLAFTAPSHQFPLGGMLSLPRRLALLDWAAEQSKWILEDDYNGEFRYSARPIQALQGLDKYQRVIYAGTFSKMLLPELRLGFLVVPSKLVQAFQLAKHYADTHTAHLEQATLALFITEGHYARHVRRVRKACLARQTALIAAIEQYLPDKLSVQTSDSGIHLVCWLKGDLTEEKVINKCRQLSLGAQPLSRYCQAPYPRQAILLGYAAHTPDELRESIKKLAQIL	not soluble
MEIKLEEILKKQPLYSGKAKSIYEIDDDKVLIEFRDDITAGNGAKHDVKQGKGYLNALISSKLFEALEENGVKTHYIKYIEPRYMIAKKVEIIPIEVIVRNIAAGSLCRRYPFEEGKELPFPIVQFDYKNDEYGDPMLNEDIAVALGLATREELNKIKEIALKVNEVLKKLFDEKGIILVDFKIEIGKDREGNLLVADEISPDTMRLWDKETRDVLDKDVFRKDLGDVIAKYRIVAERLGLL	soluble
MGSDKIHHHHHHMENRIVKFKSKESAGLNLHAIPGHFATSHSHINYYVDVTSIKTRVSEAKEAAKALYTKVPHHSYIDTIVCMDGTEMIGAFLSQEIERNGLMSVNKHETIYVVSPEINNGQMLFRDNNKGAIDGKHVVLLLATTTTGETIRRAMECINYYGGMVTCIASIFSTIDEVNGVKIDKLFDDDDVVNYQTYPVTECPFCKKGLPIEAMVNGFGYSKL	not soluble
GPLGSKNMLLEWCRAMTRNYEHVDIQNFSSSWSSGMAFCALIHKFFPEAFDYAELDPAKRRHNFTLAFSTAEKLADCAQLLEVDDMVRLAVPDSKCVYTYIQELYRSLVQKGLVKTKKK	soluble
MGSDKIHHHHHHMAAQNAFEQKKRAILNEIDSTQPDLSPKGTIDELCLPIIDLINASADMVTTSSCSGRVSVFLEGTKSYNGEVKIGGKGQGGKWLYVTHDREKVIGWLDELKSKSEFSFELSGKEIPTEKVTGSIRYILYKYEPFILHVKCRDFQAASKLYNTAMSCGFRESGIGSNNLVAIRINIKLDVPLGYLDETSGTLKFFVTPEYVSVLDSLSLSKFDENTRKMQALYDRIEKELINCAPDVNSKVNITPIETKEERRERKKREGMERQRQLKSPQNVL	not soluble
MRRFLTLTVALGFLSACEVSDPGPVAPLPKVPDSPPMSASAAQSAFASVSARVRPVAVRECQQRTQGANCDFKIQIDPDPKAPVNAYQTVGKNGQPLIIFTRSMIATARNADELAFVMGHEAAHHIRGHLARQNASAIAGAVILGGLVGLAGGGASTIDAATQIGASVGARTYSKEYELEADELGTVITHKAGYNPLVGAHFFSRIPDPGDRFLGSHPPNAARIQTVQRTAGSLGLTQLEHHHHHH	not soluble
MGEGTRGEAFKKIREGYKVHIFDESYVSYINKGKGWMKVGGGIKVNPKRKRFAVVGGITISKEGITFSYSTYKKPSLNSKDIILYLRKVIKDEKTVIVMDNARIHGNEVREFLEENGVEFVYLPPYSPDKSPAEGPWAVLKKRLYSKIYTDFETLMWDATRFLRSISKRVNDLTYSVKRCGEPLDVNTE	soluble
MNYTTEFKLGTDGLDVVPGATNTFEMPEGVIPSANATVYFYSGGMPESATANYTGAGNLWSFTSTNGIDSSAGAIRVEITQGRNFGDDPGLVTATATTRAWNEPPLVTVDQSVSGETKFAFSIPVGKPGNDGISAYAQAHAQGFNGSVDDWLESLRGANGKSAYELAVTQGFQGSSADWLNSLKGATGKSAYEVAVAQGFTGALAEWVESLKGVAGKSAYDIALDAGYKGSHLDWLNSLKGGKGDKGDHGKSAYQVAFDAGFSGTEAEWLESLKAPSAPAVGGYKELANGVLWYCRPRYNTGRCTVPDTGWGAYDYETAEHTTKFVIEDGLFEDHGCYVVPDASNLPTDDLRLRMTRGVNRGIHHAGRMTNRSDLVPPYSATTSYFIDRWAAKFYGWYYVMLSPQESAQFLADTDLEKIEVDVQPVTFSGVDVTNWAPGGTETYFLAKEQGLLVPIYKGASRHTVSATGETIVALWFRVGVYTHRSNIGSDNHSFDGINGEPDGWNLHDVDVKFWSTNVAQGMKFSAKIRN	not soluble
SNAMPSIRYPSTEFPALTGFTVPIPETWQPDPTMGTQFAARPHTPPQGFTPNIIGTVRRAATGALHNQRTELDQRATQLPDYAERGRTETTVDGFPAYHIEYAYRHHGTITIAQMITLVEVSHPHAVDIIQLTATCAGDQTADYWDTFRLMHADLTVQPHG	soluble
